Here are results for six molecules from PMC3575409, “Identification of a Novel Protein-Protein Interaction Motif Mediating Interaction of GPCR-Associated Sorting Proteins with G Protein-Coupled Receptors” (PLoS ONE, 2013).

Test [1] deals with GST-fused C-tail of the δ-opioid receptor (residues 314–372). Briefly: pull-down; GST-fused receptor C-tails immobilized on glutathione-Sepharose beads, incubated with [35S]-labelled in vitro translated GASPs 1 h at 4°C; 20 mM Tris-HCl pH 7.4, 150 mM NaCl, 1 mM EDTA, 1 mM DTT, 10% glycerol, 1% Triton X-100; Phosphor-imager quantification.
The target in test [2] is GST-fused C-tail of the muscarinic M1 acetylcholine receptor (residues 414–460). The description is as above.
Test [3] addresses GST-fused C-tail of the β1 adrenergic receptor (residues 373–477). The test is described as above.
Test [4] has as its target all three receptor C-tails (ADRB1, M1 and CALCR). Described as above.
Test [5] has as its target the four receptor C-tails (ADRB1, M1, CALCR and TXA2). Put plainly: pull-down; competition: synthetic peptide (1 to 250 µM, or 150 µM) against [35S]-labelled GASPs for GST-fused C-tails; the peptide and the C-tail.
Test [6] concerns the target GST-fused C-tail of the β1 adrenergic receptor (residues 373–477). The description is as above.
Test [7] shares this target. Put plainly: pull-down; data not shown; GST-ADRB1 C-tail with GASP-1 fragment 924–1395.
The target in test [8] is free GST. Put plainly: pull-down; GST-fused receptor C-tails immobilized on glutathione-Sepharose beads, incubated with [35S]-labelled in vitro translated GASPs 1 h at 4°C; 20 mM Tris-HCl pH 7.4, 150 mM NaCl, 1 mM EDTA, 1 mM DTT, 10% glycerol, 1% Triton X-100; Phosphor-imager quantification.
The target in test [9] is GST-fused C-tail of the insulin growth factor I receptor (residues 1268–1367). The test is described as above.
GST-fused C-tail of the insulin growth factor I receptor (residues 1268–1367), sequence (P08069 1268-1367): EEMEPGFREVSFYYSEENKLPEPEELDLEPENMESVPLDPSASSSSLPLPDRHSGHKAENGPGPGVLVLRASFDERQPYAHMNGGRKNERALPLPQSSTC
In test [10] the target is GST-fused C-tail of the histamine 2 receptor (residues 284–349). The test is described as above.
GST-fused C-tail of the histamine 2 receptor (residues 284–349), sequence (P25021 284-349): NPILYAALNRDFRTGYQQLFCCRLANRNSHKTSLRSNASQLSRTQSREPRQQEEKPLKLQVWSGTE
For test [11], the target named is GST-fused C-tail of the α isoform of the thromboxane A2 receptor (residues 304–343). The test is described as above.
Test [12] concerns the target GST-fused C-tail of the type III transforming growth factor β receptor (residues 805–849). The test is described as above.
In test [13] the target is T1, GST-fused C-tail of the calcitonin receptor (residues 407–490).
T1 sequence (P30988 whole entry, species assumed, looked up): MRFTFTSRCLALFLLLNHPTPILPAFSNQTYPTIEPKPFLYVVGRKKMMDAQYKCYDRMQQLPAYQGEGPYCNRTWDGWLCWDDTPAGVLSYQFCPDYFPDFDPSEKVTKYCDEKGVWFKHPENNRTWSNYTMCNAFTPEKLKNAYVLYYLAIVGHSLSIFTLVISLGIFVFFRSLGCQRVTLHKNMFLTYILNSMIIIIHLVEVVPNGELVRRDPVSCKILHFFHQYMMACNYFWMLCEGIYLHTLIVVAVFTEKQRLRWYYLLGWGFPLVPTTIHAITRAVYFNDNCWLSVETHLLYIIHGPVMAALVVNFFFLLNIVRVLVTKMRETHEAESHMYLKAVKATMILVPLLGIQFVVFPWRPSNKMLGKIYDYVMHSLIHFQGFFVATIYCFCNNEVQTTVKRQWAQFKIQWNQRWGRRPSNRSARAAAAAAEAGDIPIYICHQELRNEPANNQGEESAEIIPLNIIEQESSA
Described as above.

GST-fused C-tail of the type III transforming growth factor β receptor (residues 805–849), sequence (Q03167 805-849): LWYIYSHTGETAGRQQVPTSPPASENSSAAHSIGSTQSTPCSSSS

B1: GASP-1 truncated mutant 380–1073 (central domain), in vitro translated (domain or fragment)
chain: MTKEEAKTKARARAKQEARSEEEALIGTWFWATDESSMADEASIESSLQVEDESIIGSWFWTEEEASMGTGASSKSRPRTDGERIGDSLFGAREKTSMKTGAEATSESILAADDEQVIIGSWFWAGEEVNQEAEEETIFGSWFWVIDAASVESGVGVSCESRTRSEEEEVIGPWFWSGEQVDIEAGIGEEARPGAEEETIFGSWFWAENQTYMDCRAETSCDTMQGAEEEEPIIGSWFWTRVEACVEGDVNSKSSLEDKEEAMIPCFGAKEEVSMKHGTGVRCRFMAGAEETNNKSCFWAEKEPCMYPAGGGSWKSRPEEEEDIVNSWFWSRKYTKPEAIIGSWLWATEESNIDGTGEKAKLLTEEETIINSWFWKEDEAISEATDREESRPEAEEGDIIGSWFWAGEEDRLEPAAETREEDRLAAEKEGIVGSWFGAREETIRREAGSCSKSSPKAEEEEVIIGSWFWEEEASPEAVAGVGFESKPGTEEEEITVGSWFWPEEEASIQAGSQAVEEMESETEEETIFGSWFWDGKEVSEEAGPCCVSKPEDDEEMIVESWFWSRDKAIKETGTVATCESKPENEEGAIVGSWFEAEDEVDNRTDNGSNCGSRTLADEDEAIVGSWFWAGDEAHFESNPSPVFRAICRSTCSVEQEPDPSRRPQSWEEVTVQFKPGPWGRVGFPSISPFRFPKE
modifications: [35S]-methionine labelled
Consider B1, for which the percent of the full-length GASP-1 interaction (% of the full-length GASP-1 interaction) in [1] stood at 30; in [2] it was 70; in test [3] it was 70.

B2: GASP-2 truncated mutant 377–838 (domain or fragment)
chain: QEPRFEEEVIIGSWFWAEKEASLEGGASAICESEPGTEEGAIGGSAYWAEEKSSLGAVAREEAKPESEEEAIFGSWFWDRDEACFDLNPCPVYKVSDRFRDAAEELNASSRPQTWDEVTVEFKPGLFHGVGFRSTSPFGIPEEASEMLEAKPKNLELSPEGEEQESLLQPDQPSPEFTFQYDPSYRSVREIREHLRARESAESESWSCSCIQCELKIGSEEFEEFLLLMDKIRDPFIHEISKIAMGMRSASQFTRDFIRDSGVVSLIETLLNYPSSRVRTSFLENMIHMAPPYPNLNMIETFICQVCEETLAHSVDSLEQLTGIRMLRHLTMTIDYHTLIANYMSGFLSLLTTANARTKFHVLKMLLNLSENPAVAKKLFSAKALSIFVGLFNIEETNDNIQIVIKMFQNISNIIKSGKMSLIDDDFSLEPLISAFREFEELAKQLQAQIDNQNDPEVGQQS
modifications: [35S]-methionine labelled
Consider B2, for which the percent of the full-length GASP-2 interaction (% of the full-length GASP-2 interaction) in test [4] was 30 to 60.

B3: GASP peptide (peptide)
peptide: RVKQEPRFEEEVIIGSWFWAEKEA
Take B3: the percent of GASP-1, -2 and -7 retained with 150 µM GASP peptide, of the control without peptide in test [5] was 6 to 35 % of control. For the same molecule, in test [6], the percent inhibition of GASP-2 binding at 100 µM peptide was found to be 65% and the percent inhibition of GASP-2 binding at 250 µM peptide came out at 76%.

B4: GASP-1 fragment corresponding to amino acids 924 to 1395 (domain or fragment)
chain: CCVSKPEDDEEMIVESWFWSRDKAIKETGTVATCESKPENEEGAIVGSWFEAEDEVDNRTDNGSNCGSRTLADEDEAIVGSWFWAGDEAHFESNPSPVFRAICRSTCSVEQEPDPSRRPQSWEEVTVQFKPGPWGRVGFPSISPFRFPKEAASLFCEMFGGKPRNMVLSPEGEDQESLLQPDQPSPEFPFQYDPSYRSVQEIREHLRAKESTEPESSSCNCIQCELKIGSEEFEELLLLMEKIRDPFIHEISKIAMGMRSASQFTRDFIRDSGVVSLIETLLNYPSSRVRTSFLENMIRMAPPYPNLNIIQTYICKVCEETLAYSVDSPEQLSGIRMIRHLTTTTDYHTLVANYMSGFLSLLATGNAKTRFHVLKMLLNLSENLFMTKELLSAEAVSEFIGLFNREETNDNIQIVLAIFENIGNNIKKETVFSDDDFNIEPLISAFHKVEKFAKELQGKTDNQNDPEGDQEN
modifications: [35S]-methionine labelled
As to B4, the percent of input retained (% of the input) in test [7] was determined as 5.

B5: GASP-6 (natural protein)
chain: MGYARKVGWVTAGLVIGAGACYCIYRLTRGRKQNKEKMAEGGSGDVDDAGDCSGARYNDWSDDDDDSNESKSIVWYPPWARIGTEAGTRARARARARATRARRAVQKRASPNSDDTVLSPQELQKVLCLVEMSEKPYILEAALIALGNNAAYAFNRDIIRDLGGLPIVAKILNTRDPIVKEKALIVLNNLSVNAENQRRLKVYMNQVCDDTITSRLNSSVQLAGLRLLTNMTVTNEYQHMLANSISDFFRLFSAGNEETKLQVLKLLLNLAENPAMTRELLRAQVPSSLGSLFNKKENKEVILKLLVIFENINDNFKWEENEPTQNQFGEGSLFFFLKEFQVCADKVLGIESHHDFLVKVKVGKFMAKLAEHMFPKSQE
modifications: [35S]-methionine labelled
Turning to B5, the percent of GASP input retained (% of GASP input) in test [8] was under 1; in test [9], under 1; in test [10], 2; in test [1], 2; in test [11] it was 2; in [2], 2. Further, the percent of GASP input retained (% of GASP input) in test [12] was under 1; in test [3] it was 2; in test [13], 2.

B6: GASP-1 truncated mutant 1025–1395 (conserved C-terminal domain) (domain or fragment)
chain: ICRSTCSVEQEPDPSRRPQSWEEVTVQFKPGPWGRVGFPSISPFRFPKEAASLFCEMFGGKPRNMVLSPEGEDQESLLQPDQPSPEFPFQYDPSYRSVQEIREHLRAKESTEPESSSCNCIQCELKIGSEEFEELLLLMEKIRDPFIHEISKIAMGMRSASQFTRDFIRDSGVVSLIETLLNYPSSRVRTSFLENMIRMAPPYPNLNIIQTYICKVCEETLAYSVDSPEQLSGIRMIRHLTTTTDYHTLVANYMSGFLSLLATGNAKTRFHVLKMLLNLSENLFMTKELLSAEAVSEFIGLFNREETNDNIQIVLAIFENIGNNIKKETVFSDDDFNIEPLISAFHKVEKFAKELQGKTDNQNDPEGDQEN
modifications: [35S]-methionine labelled
B6 came in with a percent of the full-length GASP-1 interaction (% of the full-length GASP-1 interaction) in [1] of 25.
